# B1: CPEB3 Ribozyme (parent)
# chain: GGGGGCCACAGCAGAAGCGUUCACGUCGCGGCCCCUGUCAGAUUCUGGUGAAUCUGCGAAUUCUGCUGU
# Variants of: B1
# Assay: self-cleavage, relative activity (ratio to wild type); higher = more cleavage; co-transcriptional
row,Variant,self-cleavage
1,G37U U64C,0.283
2,G37U U64A,0.269
3,U38A U67G,0.9
4,U38A U67A,0.941
5,U38C C39A,0.299
6,U38C C39G,0.448
7,U38C C39U,0.702
8,U38A C54U,0.911
9,U38A A60G,0.563
10,U38A A60C,0.418
11,U38C U46A,0.943
12,U38C U46C,0.966
13,U38G A52C,0.275
14,U38G A52G,0.327
15,U38A U49C,0.899
16,U38A U49G,0.962
17,U38A U49A,0.846
18,U38C U67C,0.949
19,U38C U67A,0.931
20,U38G A59G,0.132
21,U38G A59C,0.232
22,U38C A40G,0.842
23,U38C A40C,0.77
24,U38C A40U,0.889

row,Variant,self-cleavage
1,U38A C57U,0.35
2,U38A C57A,0.368
3,U38C U69A,0.988
4,U38C U69C,1.06
5,U38A A59C,0.497
6,U38A A59G,0.939
7,U38A A59U,0.462
8,U38C U64G,0.785
9,U38C U64C,0.662
10,U38G C45A,0.286
11,U38G C45U,0.28
12,U38C G68C,0.975
13,U38C G68U,0.997
14,U38C G68A,0.992
15,U38C C63U,0.876
16,U38G C39A,0.8
17,U38G C54A,0.304
18,U38A U46G,0.943
19,U38A G68C,0.927
20,U38A G68U,0.939
21,U38C U61C,0.57
22,U38C G65A,0.746
23,U38C G65U,0.495
24,U38C G65C,0.519

row,Variant,self-cleavage
1,U38A G41C,0.675
2,U38A U62C,0.594
3,U38A U62A,0.648
4,U38C G58A,0.895
5,U38C G58U,1.01
6,U38C G58C,0.929
7,U38A U61A,0.782
8,U38A U61G,0.637
9,U38A U61C,0.507
10,U38A U43C,0.9
11,U38A U43G,0.8
12,U38A G50C,0.911
13,U38A G50U,0.894
14,U38C C66G,0.717
15,U38C C66A,0.687
16,U38C G56C,0.401
17,U38C G56A,0.879
18,U38C G56U,0.658
19,U38C A59U,0.316
20,U38A A40U,0.692
21,U38A A42U,0.817
22,U38A G48U,0.957
23,U38A G48A,0.938
24,U38A G48C,0.887

row,Variant,self-cleavage
1,U38C C45A,0.885
2,U38C C45U,0.922
3,G37U U46A,0.416
4,G37U U46G,0.263
5,G37U U46C,0.292
6,U38G G41C,0.226
7,U38G C57U,0.282
8,U38G C57A,0.161
9,U38C C54G,0.643
10,U38C C54U,0.948
11,G37U U69C,0.533
12,U38C U62C,0.633
13,U38C U62G,0.717
14,U38C G50C,0.942
15,U38C G50A,0.948
16,U38A U55C,0.846
17,U38A U55G,0.758
18,U38A U55A,0.779
19,U38A G56A,0.922
20,U38C U44A,0.891
21,U38C U44C,0.856
22,G37U U53C,0.252
23,G37U U53G,0.206
24,U38C G48A,0.963

row,Variant,self-cleavage
1,G37U U61C,0.21
2,G37U U61G,0.152
3,U38G G48U,0.266
4,U38G G48C,0.236
5,G37U U62A,0.227
6,G37U U62G,0.332
7,G37U U44G,0.231
8,G37U U44A,0.213
9,G37U U55C,0.214
10,G37U U55G,0.173
11,U38G C63A,0.155
12,U38A C66A,0.721
13,U38A C66U,0.917
14,U38A C66G,0.764
15,U38C C57G,0.369
16,U38A A51U,0.84
17,U38A G58A,0.848
18,U38A G58U,0.936
19,U38A U53C,0.811
20,U38C A52C,0.921
21,G37U U67G,0.304
22,G37U U67A,0.293
23,G37U U67C,0.317
24,G37U U43C,0.236

row,Variant,self-cleavage
1,U38C A42U,0.827
2,U38C A42C,0.885
3,U38C A42G,0.938
4,U38A C39U,0.888
5,U38A C63U,0.877
6,U38A C63G,0.67
7,U38A C63A,0.663
8,U38A G47A,0.916
9,U38A G47U,1
10,U38A G47C,0.937
11,U38A U44A,0.854
12,U38A U44G,0.875
13,U38C G41A,0.736
14,U38C G41C,0.773
15,U38G A51C,0.293
16,U38G A60G,0.249
17,U38G A60U,0.331
18,U38C G47A,0.933
19,U38C G47U,0.925
20,U38C U55C,0.556
21,U38C U55A,0.733
22,G37U U49C,0.335
23,G37U U49A,0.258
24,G37U U49G,0.327

row,Variant,self-cleavage
1,U38C U43A,0.8
2,U38C U43C,0.858
3,U38C U49G,0.916
4,U38C U49C,0.999
5,U38A C45G,0.902
6,U38A A52G,0.89
7,U38A A52U,0.856
8,U38G C66A,0.285
9,U38G C66U,0.194
10,U38G C66G,0.229
11,U38C A60C,0.293
12,U38C A60G,0.78
13,U38A U64C,0.776
14,U38C A51G,0.88
15,U38C A51C,0.87
16,U38A U69A,0.98
17,U38G A42U,0.178
18,U38G A42G,0.189
19,U38G A42C,0.264
20,U38G G47U,0.219
21,U38G G47A,0.272
22,U38A G65C,0.578
23,U38A G65U,0.633

# Source: the RNAGym collection of RNA variant scans (doi:10.7554/elife.80360)
